Source: patent US20190376122, “SINGLE-STRAND BINDING PROTEIN” (Universitetet I Tromsø - Norges Arktiske Universitet, published 2019)

How the values were obtained:
[1] = molecular target: T1, wild-type Salinibacter ruber SSB (SrSSB) (Salinibacter ruber DSM 13855); test: SPR; 10 mM Tris-HCl pH 7, 10 mM NaCl; Chi2 0.529; settings: chain copies: octamer/dodecamer mixture at 0.15 M NaCl; mostly octamer at 2 M NaCl (stated); label: 5'-biotin
T1 chain: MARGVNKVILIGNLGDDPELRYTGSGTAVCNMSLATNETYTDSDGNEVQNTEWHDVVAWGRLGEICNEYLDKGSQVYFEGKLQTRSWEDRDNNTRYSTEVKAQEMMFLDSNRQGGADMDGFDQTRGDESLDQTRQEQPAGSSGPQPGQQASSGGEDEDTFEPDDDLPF
From the text: (§1) Higher binding affinity of the D17K D71K mutant was also confirmed by probing the protein-ssDNA interaction strength directly with the use of Surface Plasmon Resonance on a T200 instrument (BIACORE). This biosensor-based technique enables real-time measurement of binding parameters that enables calculation of equilibrium dissociation constant (KD) of different complexes, including nucleoprotein complexes. To ensure that the measurement is not biased by nucleotide sequence, a randomly generated, 150 nucleotide, 5′-biotynylated ssDNA oligonucleotide was used (Table 2, SEQ ID NO:11). Oligonucleotides were attached to the surface of the SA S-type chip (BIACORE) via biotin-streptavidin interaction. Next, both proteins were run in dilutions: 10 nM, 20 nM, 40 nM, 100 nM, 150 nM, 200 nM, 300 nM over the chip surface in MB buffer (10 mM Tris-HCl pH 7, 10 mM NaCl). The binding event was detected by mass change on the chip surface, which enabled real time measurements of the kinetic parameters of protein-ssDNA interaction.

SrSSB D17K D71K mutant [2] = molecular target: T2, SrSSB D17K D71K mutant (Salinibacter ruber); test: SPR; 10 mM Tris-HCl pH 7, 10 mM NaCl; Chi2 0.624; settings: chain copies: octamer (stated); label: 5'-biotin
T2 chain: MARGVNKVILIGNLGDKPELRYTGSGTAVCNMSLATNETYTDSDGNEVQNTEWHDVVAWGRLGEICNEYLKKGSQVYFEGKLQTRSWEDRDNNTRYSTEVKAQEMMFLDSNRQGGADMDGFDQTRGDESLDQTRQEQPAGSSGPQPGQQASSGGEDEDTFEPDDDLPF
From the text: as §1

[3] = molecular target: T1, wild-type Salinibacter ruber SSB (SrSSB); test: structure; PDB 5ODN; d(T)8 soaked; one ssDNA fragment per OB-fold; 0.25 M MgCl2, 1 M ammonium sulphate, pH 8.0; settings: chain copies: octamer/dodecamer mixture at 0.15 M NaCl; mostly octamer at 2 M NaCl (stated)
Procedure: Small, prism-shaped crystals of wild-type S. ruber SSB were obtained in sitting drops consisting of 1 μl of protein solution (5 mg/ml) containing 20 μM of d(T)₇₅ oligonucleotide and 1 μl of reservoir solution (27% w/v PEG 3350, 100 mM Tris-HCl pH 8.0, 0.25M MgCl₂, 1 M ammonium sulphate). Soaking experiments were performed by adding d(T)₈ oligonucleotide to the drops containing formed crystals, to a final concentration of 0.25 μM.

E. coli SSB = E. coli SSB (Escherichia coli, UniProt P0AGE0 P0AGE0:2-178); test: beacon fluorescence, 0.25 uM tetramer; binding decreases significantly with increasing concentration of all tested salts; 25 C; settings: chain copies: tetramer (stated); label: dT-DABCYL and dT-FAM internal; partial hairpin with short 8 bp stem and 24 nt single-stranded loop
E. coli SSB, sequence (P0AGE0 2-178, one chain of several): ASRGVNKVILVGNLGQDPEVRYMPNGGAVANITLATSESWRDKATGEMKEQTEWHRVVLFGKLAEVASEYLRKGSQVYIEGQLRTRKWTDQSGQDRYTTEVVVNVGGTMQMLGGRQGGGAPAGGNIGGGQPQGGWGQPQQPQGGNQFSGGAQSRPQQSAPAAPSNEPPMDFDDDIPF
Procedure: (§2) Wild-type S.ruber SSB and the D17K D71K mutant were tested for their ability to bind ssDNA in reaction buffer supplemented with NaCl, KCl, MgCl₂ and CaCl₂. E. coli SSB was used as a well characterized, reference protein.
(§3) Reactions contained 0.125 μM of molecular beacon and 0.25 μM of E. coli SSB tetramer (single binding unit), 4 μM of wt SrSSB and 2 μM of D17K D71K. Reaction mixtures were set up in triplicates in 50 μl of reaction buffer MB (10 mM Tris-HCl pH 7, 10 mM NaCl) containing the fluorescent probe and supplemented with an indicated concentration of NaCl, KCl or MgCl₂ in 96-well plate (Corning). The binding reaction was initiated by addition of the indicated SSB protein, next reactions were incubated at 25° C. for 15′ and the fluorescence was measured with excitation at 495 nm and emission at 520 nm on the Gemini plate reader (Molecular Devices). All graphs were normalized to 100% of initial response, measured in fluorescence units.

[4] = molecular target: T1, wild-type Salinibacter ruber SSB (SrSSB); test: beacon dehybridization fluorescence, 4 uM protein; binding maintained with NaCl to 1 M, KCl to 1 M, MgCl2 to 250 mM; 25 C; settings: chain copies: octamer/dodecamer mixture at 0.15 M NaCl; mostly octamer at 2 M NaCl (stated); label: dT-DABCYL and dT-FAM internal; partial hairpin with short 8 bp stem and 24 nt single-stranded loop
Procedure: as §2, §3

SrSSB D17K D71K mutant [5] = molecular target: T2, SrSSB D17K D71K mutant; test: beacon dehybridization fluorescence, 2 uM protein; level similar to wt at half the concentration; maintained in high NaCl, KCl, MgCl2; 25 C; settings: chain copies: octamer (stated); label: dT-DABCYL and dT-FAM internal; partial hairpin with short 8 bp stem and 24 nt single-stranded loop
Procedure: as §2, §3

B1: SPR 150nt oligonucleotide (ssDNA)
DNA: AAAGGGTATTGACGGACCAGATGTAGCGTGGCAGAAAAGGGTATTGACGGACCAGATGTAGCGTGGCAGAGACTGAAAGGGTATTGACGGACCAGATGTAGCGTGGCAGAAAAGGGTATTGACGGACCAGATGTAGCGTGGCAGAGACTG
Kd [1]: 34.3 nM
Kd (SrSSB D17K D71K mutant [2]): 19.1 nM

B2: d(T)8 (ssDNA)
DNA: TTTTTTTT
binding result [3]: binds

B3: MB molecular beacon (ssDNA)
DNA: GGCCCGTAGGAGGAAAGGACATCTTCTAGCATACGGGCCGTCAAGTTCATGGCCAGTCAAGTCGTCAGAAATTTCGCACCAC
binding result (E. coli SSB): binds
binding result [4]: binds
binding result (SrSSB D17K D71K mutant [5]): binds
